Source: patent US20040018971A1 (published 2004)

Assays:
HLA-B*0702 = HLA-B*0702 (human); assay: competition with 125I-labelled probe peptide for purified HLA, gel filtration
HLA-A*0101 = target: T1, HLA-A*0101 (human); assay: competition with 125I-labelled probe peptide for purified HLA-A*0101, gel filtration; relative to standard peptide
T1 construct: also called HLA-A1

Binder: HPPPAFSPAF [HER2/neu peptide, position 1208, 10 amino acids]
- relative binding ratio (HLA-B*0702): 0.0018 ratio (IC50 of standard / IC50 of test peptide)

Binder: MPNPEGRY [HER2/neu peptide, position 282, 8 amino acids]
- relative binding ratio (HLA-B*0702): < 0.0006 ratio (IC50 of standard / IC50 of test peptide)

Binder: GPEADQCVACA [HER2/neu peptide, position 578, 11 amino acids]
- relative binding ratio (HLA-B*0702): < 0.0003 ratio (IC50 of standard / IC50 of test peptide)

Binder: LPDLSVFQNL [HER2/neu peptide, position 419, 10 amino acids]
- relative binding ratio (HLA-B*0702): 0.0003 ratio (IC50 of standard / IC50 of test peptide)

Binder: IPDGENVKIPV [HER2/neu peptide, position 740, 11 amino acids]
- relative binding ratio (HLA-B*0702): 0.0023 ratio (IC50 of standard / IC50 of test peptide)

Binder: GPKHSDCL [HER2/neu peptide, position 246, 8 amino acids]
- relative binding ratio (HLA-B*0702): 0.0092 ratio (IC50 of standard / IC50 of test peptide)

Binder: EPLTPSGA [HER2/neu peptide, position 698, 8 amino acids]
- relative binding ratio (HLA-B*0702): < 0.0002 ratio (IC50 of standard / IC50 of test peptide)

Binder: CPAEQRASPL (also called Her2/neu.642) [HER2/neu peptide, position 642, 10 amino acids]
- relative binding ratio (HLA-B*0702): 0.15 ratio (IC50 of standard / IC50 of test peptide)

Binder: LPTHDPSPL [HER2/neu peptide, position 1101, 9 amino acids]
- relative binding ratio (HLA-B*0702): 0.046 ratio (IC50 of standard / IC50 of test peptide)

Binder: ASPLDSTFY [HER2/neu peptide, position 997, 9 amino acids]
- relative binding ratio (IC50 of standard peptide / IC50 of test peptide) (HLA-A*0101): 0.029 relative binding ratio

Binder: KPCARVCYGL (also called Her2/neu.336) [HER2/neu peptide, position 336, 10 amino acids]
- relative binding ratio (HLA-B*0702): 0.037 ratio (IC50 of standard / IC50 of test peptide)

Binder: DPQRFVVI [HER2/neu peptide, position 982, 8 amino acids]
- relative binding ratio (HLA-B*0702): < 0.0006 ratio (IC50 of standard / IC50 of test peptide)

Binder: ETLEEITGY [HER2/neu peptide, position 401, 9 amino acids]
- relative binding ratio (IC50 of standard peptide / IC50 of test peptide) (HLA-A*0101): 0.043 relative binding ratio

Binder: LPSETDGYV [HER2/neu peptide, position 1120, 9 amino acids]
- relative binding ratio (HLA-B*0702): 0.0002 ratio (IC50 of standard / IC50 of test peptide)

Binder: CPLHNQEV [HER2/neu peptide, position 315, 8 amino acids]
- relative binding ratio (HLA-B*0702): < 0.0006 ratio (IC50 of standard / IC50 of test peptide)

Binder: HPPPAFSPA [HER2/neu peptide, position 1208, 9 amino acids]
- relative binding ratio (HLA-B*0702): 0.0093 ratio (IC50 of standard / IC50 of test peptide)

Binder: CPSGVKPDLSY (also called Her2/neu.600) [HER2/neu peptide, position 600, 11 amino acids]
- relative binding ratio (HLA-B*0702): 0.03 ratio (IC50 of standard / IC50 of test peptide)

Binder: DPSPLQRY [HER2/neu peptide, position 1105, 8 amino acids]
- relative binding ratio (HLA-B*0702): < 0.0006 ratio (IC50 of standard / IC50 of test peptide)

Binder: GPLPAARPA [HER2/neu peptide, position 1155, 9 amino acids]
- relative binding ratio (HLA-B*0702): 0.09 ratio (IC50 of standard / IC50 of test peptide)

Binder: APSEGAGSDVF [HER2/neu peptide, position 1076, 11 amino acids]
- relative binding ratio (HLA-B*0702): 0.0006 ratio (IC50 of standard / IC50 of test peptide)

Binder: GPEADQCV [HER2/neu peptide, position 578, 8 amino acids]
- relative binding ratio (HLA-B*0702): < 0.0006 ratio (IC50 of standard / IC50 of test peptide)

Binder: KPDLSYMPIW [HER2/neu peptide, position 605, 10 amino acids]
- relative binding ratio (HLA-B*0702): 0.0001 ratio (IC50 of standard / IC50 of test peptide)

Binder: LPESFDGDPA [HER2/neu peptide, position 377, 10 amino acids]
- relative binding ratio (HLA-B*0702): 0.0001 ratio (IC50 of standard / IC50 of test peptide)

Binder: APQPHPPPA [HER2/neu peptide, position 1204, 9 amino acids]
- relative binding ratio (HLA-B*0702): 0.0056 ratio (IC50 of standard / IC50 of test peptide)

Binder: GPASPLDSTF [HER2/neu peptide, position 995, 10 amino acids]
- relative binding ratio (HLA-B*0702): 0.051 ratio (IC50 of standard / IC50 of test peptide)

Binder: AFSPAFDNLY [HER2/neu peptide, position 1212, 10 amino acids]
- relative binding ratio (IC50 of standard peptide / IC50 of test peptide) (HLA-A*0101): 0.001 relative binding ratio

Binder: DPLNNTTPV [HER2/neu peptide, position 121, 9 amino acids]
- relative binding ratio (HLA-B*0702): 0.0002 ratio (IC50 of standard / IC50 of test peptide)

Binder: GPEADQCVA [HER2/neu peptide, position 578, 9 amino acids]
- relative binding ratio (HLA-B*0702): 0.0001 ratio (IC50 of standard / IC50 of test peptide)

Binder: KPCARVCY [HER2/neu peptide, position 336, 8 amino acids]
- relative binding ratio (HLA-B*0702): < 0.0006 ratio (IC50 of standard / IC50 of test peptide)

Binder: AFSPAFDNLYY [HER2/neu peptide, position 1212, 11 amino acids]
- relative binding ratio (IC50 of standard peptide / IC50 of test peptide) (HLA-A*0101): 0.014 relative binding ratio

Binder: LPREYVNA [HER2/neu peptide, position 550, 8 amino acids]
- relative binding ratio (HLA-B*0702): 0.0012 ratio (IC50 of standard / IC50 of test peptide)

Binder: LPSETDGYVA [HER2/neu peptide, position 1120, 10 amino acids]
- relative binding ratio (HLA-B*0702): 0.0001 ratio (IC50 of standard / IC50 of test peptide)

Binder: CPSGVKPDL [HER2/neu peptide, position 600, 9 amino acids]
- relative binding ratio (HLA-B*0702): 0.014 ratio (IC50 of standard / IC50 of test peptide)

Binder: EADQCVACAHY (also called Her2/neu.580) [HER2/neu peptide, position 580, 11 amino acids]
- relative binding ratio (IC50 of standard peptide / IC50 of test peptide) (HLA-A*0101): 0.1 relative binding ratio

Binder: APSEGAGSDV [HER2/neu peptide, position 1076, 10 amino acids]
- relative binding ratio (HLA-B*0702): 0.0002 ratio (IC50 of standard / IC50 of test peptide)

Binder: IPVAIKVL [HER2/neu peptide, position 748, 8 amino acids]
- relative binding ratio (HLA-B*0702): 0.012 ratio (IC50 of standard / IC50 of test peptide)

Binder: LPAARPAGA [HER2/neu peptide, position 1157, 9 amino acids]
- relative binding ratio (HLA-B*0702): 0.0027 ratio (IC50 of standard / IC50 of test peptide)

Binder: IPDGENVKI [HER2/neu peptide, position 740, 9 amino acids]
- relative binding ratio (HLA-B*0702): 0.0001 ratio (IC50 of standard / IC50 of test peptide)

Binder: GPLPAARPAGA [HER2/neu peptide, position 1155, 11 amino acids]
- relative binding ratio (HLA-B*0702): 0.016 ratio (IC50 of standard / IC50 of test peptide)

Binder: ETHLDMLRHLY (also called Her2/neu.40) [HER2/neu peptide, position 40, 11 amino acids]
- relative binding ratio (IC50 of standard peptide / IC50 of test peptide) (HLA-A*0101): 0.28 relative binding ratio

Binder: CPDPAPGA [HER2/neu peptide, position 1032, 8 amino acids]
- relative binding ratio (HLA-B*0702): < 0.0002 ratio (IC50 of standard / IC50 of test peptide)

Binder: DMGDLVDAEEY [HER2/neu peptide, position 1013, 11 amino acids]
- relative binding ratio (IC50 of standard peptide / IC50 of test peptide) (HLA-A*0101): 0.0027 relative binding ratio

Binder: GPASPLDSTFY [HER2/neu peptide, position 995, 11 amino acids]
- relative binding ratio (HLA-B*0702): 0.0036 ratio (IC50 of standard / IC50 of test peptide)

Binder: CPINCTHSCV [HER2/neu peptide, position 626, 10 amino acids]
- relative binding ratio (HLA-B*0702): 0.0002 ratio (IC50 of standard / IC50 of test peptide)

Binder: EPLTPSGAM [HER2/neu peptide, position 698, 9 amino acids]
- relative binding ratio (HLA-B*0702): 0.011 ratio (IC50 of standard / IC50 of test peptide)

Binder: LPPGAASTQV [HER2/neu peptide, position 16, 10 amino acids]
- relative binding ratio (HLA-B*0702): 0.0002 ratio (IC50 of standard / IC50 of test peptide)

Binder: CPLHNQEVTA [HER2/neu peptide, position 315, 10 amino acids]
- relative binding ratio (HLA-B*0702): 0.0001 ratio (IC50 of standard / IC50 of test peptide)

Binder: IPAREIPDLL [HER2/neu peptide, position 926, 10 amino acids]
- relative binding ratio (HLA-B*0702): 0.0004 ratio (IC50 of standard / IC50 of test peptide)

Binder: IPAREIPDL [HER2/neu peptide, position 926, 9 amino acids]
- relative binding ratio (HLA-B*0702): 0.0006 ratio (IC50 of standard / IC50 of test peptide)

Binder: HPECQPQNGSV [HER2/neu peptide, position 564, 11 amino acids]
- relative binding ratio (HLA-B*0702): < 0.0002 ratio (IC50 of standard / IC50 of test peptide)

Binder: CPYNYLSTDV [HER2/neu peptide, position 299, 10 amino acids]
- relative binding ratio (HLA-B*0702): 0.0016 ratio (IC50 of standard / IC50 of test peptide)

Binder: DPAPGAGGMV [HER2/neu peptide, position 1034, 10 amino acids]
- relative binding ratio (HLA-B*0702): 0.0002 ratio (IC50 of standard / IC50 of test peptide)

Binder: APLQPEQLQVF [HER2/neu peptide, position 390, 11 amino acids]
- relative binding ratio (HLA-B*0702): 0.0011 ratio (IC50 of standard / IC50 of test peptide)

Binder: CSKPCARVCY [HER2/neu peptide, position 334, 10 amino acids]
- relative binding ratio (IC50 of standard peptide / IC50 of test peptide) (HLA-A*0101): 0.0016 relative binding ratio

Binder: LPTDCCHEQCA [HER2/neu peptide, position 231, 11 amino acids]
- relative binding ratio (HLA-B*0702): < 0.0003 ratio (IC50 of standard / IC50 of test peptide)

Binder: LPASPETHLDM [HER2/neu peptide, position 35, 11 amino acids]
- relative binding ratio (HLA-B*0702): < 0.0002 ratio (IC50 of standard / IC50 of test peptide)

Binder: CPDPAPGAGGM [HER2/neu peptide, position 1032, 11 amino acids]
- relative binding ratio (HLA-B*0702): < 0.0002 ratio (IC50 of standard / IC50 of test peptide)

Binder: GPTQCVNCSQF [HER2/neu peptide, position 524, 11 amino acids]
- relative binding ratio (HLA-B*0702): 0.0005 ratio (IC50 of standard / IC50 of test peptide)

Binder: APLTCSPQPEY [HER2/neu peptide, position 1129, 11 amino acids]
- relative binding ratio (HLA-B*0702): < 0.0002 ratio (IC50 of standard / IC50 of test peptide)

Binder: KPDLSYMPI (also called Her2/neu.605) [HER2/neu peptide, position 605, 9 amino acids]
- relative binding ratio (HLA-B*0702): 0.072 ratio (IC50 of standard / IC50 of test peptide)

Binder: LPSETDGY [HER2/neu peptide, position 1120, 8 amino acids]
- relative binding ratio (HLA-B*0702): < 0.0006 ratio (IC50 of standard / IC50 of test peptide)

Binder: DPASNTAPL [HER2/neu peptide, position 384, 9 amino acids]
- relative binding ratio (HLA-B*0702): 0.0004 ratio (IC50 of standard / IC50 of test peptide)

Binder: ASCVTACPY (also called Her2/neu.293) [HER2/neu peptide, position 293, 9 amino acids]
- relative binding ratio (IC50 of standard peptide / IC50 of test peptide) (HLA-A*0101): 0.055 relative binding ratio

Binder: LPTNASLSFL (also called Her2/neu.65) [HER2/neu peptide, position 65, 10 amino acids]
- relative binding ratio (HLA-B*0702): 0.019 ratio (IC50 of standard / IC50 of test peptide)

Binder: KPYDGIPAREI [HER2/neu peptide, position 921, 11 amino acids]
- relative binding ratio (HLA-B*0702): 0.043 ratio (IC50 of standard / IC50 of test peptide)

Binder: GPGPTQCV [HER2/neu peptide, position 522, 8 amino acids]
- relative binding ratio (HLA-B*0702): < 0.0006 ratio (IC50 of standard / IC50 of test peptide)

Binder: IPDLLEKGERL [HER2/neu peptide, position 931, 11 amino acids]
- relative binding ratio (HLA-B*0702): < 0.0002 ratio (IC50 of standard / IC50 of test peptide)

Binder: APQPHPPPAF [HER2/neu peptide, position 1204, 10 amino acids]
- relative binding ratio (HLA-B*0702): 0.053 ratio (IC50 of standard / IC50 of test peptide)

Binder: GPKHSDCLACL [HER2/neu peptide, position 246, 11 amino acids]
- relative binding ratio (HLA-B*0702): 0.0006 ratio (IC50 of standard / IC50 of test peptide)

Binder: DPAPGAGGM [HER2/neu peptide, position 1034, 9 amino acids]
- relative binding ratio (HLA-B*0702): 0.0001 ratio (IC50 of standard / IC50 of test peptide)

Binder: LPASPETHL [HER2/neu peptide, position 35, 9 amino acids]
- relative binding ratio (HLA-B*0702): 0.0002 ratio (IC50 of standard / IC50 of test peptide)

Binder: LPAARPAGATL [HER2/neu peptide, position 1157, 11 amino acids]
- relative binding ratio (HLA-B*0702): 0.014 ratio (IC50 of standard / IC50 of test peptide)
